Values quoted from earlier work as cited in paper PMC10954796, “Post-translational modifications of beta-amyloid alter its transport in the blood-brain barrier in vitro model” (Frontiers in Molecular Neuroscience, 2024).
Values joined by “and” are separate entries in the source; they are usually repeats but may differ in a detail not shown here. Equal values may be shown once.

How the values were obtained:
[1] = target: Aβ42 oligomers 1-42 (Homo sapiens) (UniProt P05067); experiment: surface plasmon resonance
Chain of Aβ42 oligomers 1-42 (Homo sapiens) (P05067 1-42): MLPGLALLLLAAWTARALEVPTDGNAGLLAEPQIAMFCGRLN

[2] = target: Aβ40 1-40 (Homo sapiens) (UniProt P05067)
Chain of Aβ40 1-40 (Homo sapiens) (P05067 1-40): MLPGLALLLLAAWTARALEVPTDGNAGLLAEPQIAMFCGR

Substance	Kd [1]	Kd [2]
sRAGE (from UniProt Q15109)	17 nM	
RAGE (from UniProt Q15109)		75 nM and 57 nM
